# Measurements as given in US10450368.
# Assays:
# CH505.M5D8gp120293F = assay: ELISA
# CH505.M21D8gp120/293F = assay: ELISA
# CH505w030.20D8gp120/293F = assay: ELISA
# CH505.M11D8gp120/293F = assay: ELISA
# [1] = biological target: CH505.TF mutant gp120 M20 (HIV-1); assay: ELISA
# [2] = biological target: CH505.TF mutant gp120 M8 (HIV-1); assay: ELISA
# CH505w136.B18D8gp120 = assay: ELISA
# CH505.M10D8gp120 = assay: ELISA
# CH505.M9D8gp120/293F = assay: ELISA
# CH505w020.14D8gp120 = assay: ELISA
# CH0505_CON D7gp120/293i = assay: ELISA
# CH505.M19D8gp120 = assay: ELISA
# CH505.M7D8gp120/293F = assay: ELISA
# [3] = biological target: CH505.TF mutant gp120 M6 (HIV-1); assay: ELISA
# CH505.w30.12D8gp120 = assay: ELISA
# Sm (Smith antigen) [4] = assay: AtheNA, Ab 6.25 ug/ml
# SSB [5] = biological target: SSB (UniProt P05455); assay: AtheNA, Ab 6.25 ug/ml
# SSB, sequence (P05455 whole entry): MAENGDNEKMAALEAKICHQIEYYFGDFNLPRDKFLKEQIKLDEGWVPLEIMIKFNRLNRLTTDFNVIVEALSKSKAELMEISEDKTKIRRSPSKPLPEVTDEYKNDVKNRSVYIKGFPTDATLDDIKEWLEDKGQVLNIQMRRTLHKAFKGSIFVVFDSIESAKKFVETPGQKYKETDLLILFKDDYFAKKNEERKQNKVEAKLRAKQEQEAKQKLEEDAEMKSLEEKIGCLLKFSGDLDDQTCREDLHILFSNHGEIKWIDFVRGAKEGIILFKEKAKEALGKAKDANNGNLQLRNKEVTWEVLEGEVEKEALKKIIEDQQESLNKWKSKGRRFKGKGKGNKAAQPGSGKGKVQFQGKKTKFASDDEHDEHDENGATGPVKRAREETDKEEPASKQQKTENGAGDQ
# Scl-70 [6] = biological target: Scl-70 (UniProt P11387); assay: AtheNA, Ab 6.25 ug/ml
# Scl-70, sequence (P11387 whole entry): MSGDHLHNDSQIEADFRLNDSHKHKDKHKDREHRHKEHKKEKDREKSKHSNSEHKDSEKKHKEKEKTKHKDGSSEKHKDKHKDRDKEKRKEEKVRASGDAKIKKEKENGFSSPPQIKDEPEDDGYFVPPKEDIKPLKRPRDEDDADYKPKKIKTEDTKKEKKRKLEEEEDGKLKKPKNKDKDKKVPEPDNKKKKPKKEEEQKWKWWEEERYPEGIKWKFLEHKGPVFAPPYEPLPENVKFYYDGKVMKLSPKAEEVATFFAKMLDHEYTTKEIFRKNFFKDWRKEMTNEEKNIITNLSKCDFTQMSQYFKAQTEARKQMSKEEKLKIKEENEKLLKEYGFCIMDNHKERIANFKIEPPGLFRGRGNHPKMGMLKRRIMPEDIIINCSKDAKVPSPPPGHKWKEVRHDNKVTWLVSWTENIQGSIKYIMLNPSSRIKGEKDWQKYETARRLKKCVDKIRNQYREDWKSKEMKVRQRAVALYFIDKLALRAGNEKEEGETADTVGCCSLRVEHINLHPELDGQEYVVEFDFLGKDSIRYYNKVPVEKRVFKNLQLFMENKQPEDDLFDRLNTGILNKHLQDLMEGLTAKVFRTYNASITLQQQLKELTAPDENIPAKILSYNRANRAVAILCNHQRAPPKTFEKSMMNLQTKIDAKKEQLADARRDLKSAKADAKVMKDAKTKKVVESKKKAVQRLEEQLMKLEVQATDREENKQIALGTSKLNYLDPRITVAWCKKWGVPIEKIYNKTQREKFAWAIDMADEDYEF
# RNP (ribonucleoprotein) [7] = assay: AtheNA, Ab 6.25 ug/ml
# Centromere B [8] = biological target: Centromere B (UniProt P07199); assay: AtheNA, Ab 6.25 ug/ml
# Centromere B, sequence (P07199 whole entry): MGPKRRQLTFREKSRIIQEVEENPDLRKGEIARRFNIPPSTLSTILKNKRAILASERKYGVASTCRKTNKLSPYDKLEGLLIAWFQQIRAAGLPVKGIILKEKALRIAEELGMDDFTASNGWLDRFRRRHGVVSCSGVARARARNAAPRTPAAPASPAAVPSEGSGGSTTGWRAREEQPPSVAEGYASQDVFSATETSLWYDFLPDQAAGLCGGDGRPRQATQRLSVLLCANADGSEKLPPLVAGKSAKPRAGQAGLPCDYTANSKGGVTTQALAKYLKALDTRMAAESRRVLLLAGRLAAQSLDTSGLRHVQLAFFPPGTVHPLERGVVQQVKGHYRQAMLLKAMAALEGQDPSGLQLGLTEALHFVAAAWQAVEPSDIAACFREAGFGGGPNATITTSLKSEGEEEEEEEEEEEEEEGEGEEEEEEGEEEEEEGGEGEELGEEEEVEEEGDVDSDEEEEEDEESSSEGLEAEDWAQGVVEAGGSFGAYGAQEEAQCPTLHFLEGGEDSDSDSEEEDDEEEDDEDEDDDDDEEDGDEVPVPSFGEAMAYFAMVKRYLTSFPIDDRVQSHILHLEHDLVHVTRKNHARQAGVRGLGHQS
# SSA [9] = assay: AtheNA, Ab 6.25 ug/ml
# Histones [10] = assay: AtheNA, Ab 6.25 ug/ml
# Jo-1 [11] = biological target: Jo-1 (UniProt P12081); assay: AtheNA, Ab 6.25 ug/ml
# Jo-1, sequence (P12081 whole entry): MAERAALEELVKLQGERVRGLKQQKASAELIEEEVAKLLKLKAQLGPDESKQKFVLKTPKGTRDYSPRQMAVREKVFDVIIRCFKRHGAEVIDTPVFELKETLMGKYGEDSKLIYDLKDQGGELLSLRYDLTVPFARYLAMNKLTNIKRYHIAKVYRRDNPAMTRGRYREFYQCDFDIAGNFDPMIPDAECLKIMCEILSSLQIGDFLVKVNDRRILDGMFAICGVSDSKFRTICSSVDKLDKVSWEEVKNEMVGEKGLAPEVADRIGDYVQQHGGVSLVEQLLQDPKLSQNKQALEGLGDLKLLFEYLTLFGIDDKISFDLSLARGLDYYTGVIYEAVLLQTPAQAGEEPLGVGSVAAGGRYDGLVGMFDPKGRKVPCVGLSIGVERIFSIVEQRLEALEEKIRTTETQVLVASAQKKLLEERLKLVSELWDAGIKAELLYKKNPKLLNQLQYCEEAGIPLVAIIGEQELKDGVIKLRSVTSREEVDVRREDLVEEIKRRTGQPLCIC
# Sm (Smith antigen) [12] = assay: AtheNA, Ab 12.5 ug/ml
# SSB [13] = biological target: SSB (UniProt P05455); assay: AtheNA, Ab 12.5 ug/ml
# Scl-70 [14] = biological target: Scl-70 (UniProt P11387); assay: AtheNA, Ab 12.5 ug/ml
# RNP (ribonucleoprotein) [15] = assay: AtheNA, Ab 12.5 ug/ml
# Centromere B [16] = biological target: Centromere B (UniProt P07199); assay: AtheNA, Ab 12.5 ug/ml
# SSA [17] = assay: AtheNA, Ab 12.5 ug/ml
# Histones [18] = assay: AtheNA, Ab 12.5 ug/ml
# Jo-1 [19] = biological target: Jo-1 (UniProt P12081); assay: AtheNA, Ab 12.5 ug/ml
# Sm (Smith antigen) [20] = assay: AtheNA, Ab 25 ug/ml
# SSB [21] = biological target: SSB (UniProt P05455); assay: AtheNA, Ab 25 ug/ml
# Scl-70 [22] = biological target: Scl-70 (UniProt P11387); assay: AtheNA, Ab 25 ug/ml
# RNP (ribonucleoprotein) [23] = assay: AtheNA, Ab 25 ug/ml
# Centromere B [24] = biological target: Centromere B (UniProt P07199); assay: AtheNA, Ab 25 ug/ml
# SSA [25] = assay: AtheNA, Ab 25 ug/ml
# Histones [26] = assay: AtheNA, Ab 25 ug/ml
# Jo-1 [27] = biological target: Jo-1 (UniProt P12081); assay: AtheNA, Ab 25 ug/ml
# Sm (Smith antigen) [28] = assay: AtheNA, Ab 50 ug/ml
# RNP (ribonucleoprotein) [29] = assay: AtheNA, Ab 50 ug/ml
# Centromere B [30] = biological target: Centromere B (UniProt P07199); assay: AtheNA, Ab 50 ug/ml
# Histones [31] = assay: AtheNA, Ab 50 ug/ml
# Sm (Smith antigen) [32] = assay: AtheNA, Ab 25 ug/ml; remark: listed apart in the source
# SSB [33] = biological target: SSB (UniProt P05455); assay: AtheNA, Ab 25 ug/ml; remark: listed apart in the source
# Scl-70 [34] = biological target: Scl-70 (UniProt P11387); assay: AtheNA, Ab 25 ug/ml; remark: listed apart in the source
# RNP (ribonucleoprotein) [35] = assay: AtheNA, Ab 25 ug/ml; remark: listed apart in the source
# Centromere B [36] = biological target: Centromere B (UniProt P07199); assay: AtheNA, Ab 25 ug/ml; remark: listed apart in the source
# SSA [37] = assay: AtheNA, Ab 25 ug/ml; remark: listed apart in the source
# Histones [38] = assay: AtheNA, Ab 25 ug/ml; remark: listed apart in the source
# Jo-1 [39] = biological target: Jo-1 (UniProt P12081); assay: AtheNA, Ab 25 ug/ml; remark: listed apart in the source
# Sm (Smith antigen) [40] = assay: AtheNA, Ab 50 ug/ml; remark: listed apart in the source
# SSB [41] = biological target: SSB (UniProt P05455); assay: AtheNA, Ab 50 ug/ml
# Scl-70 [42] = biological target: Scl-70 (UniProt P11387); assay: AtheNA, Ab 50 ug/ml
# RNP (ribonucleoprotein) [43] = assay: AtheNA, Ab 50 ug/ml; remark: listed apart in the source
# Centromere B [44] = biological target: Centromere B (UniProt P07199); assay: AtheNA, Ab 50 ug/ml; remark: listed apart in the source
# SSA [45] = assay: AtheNA, Ab 50 ug/ml
# Histones [46] = assay: AtheNA, Ab 50 ug/ml; remark: listed apart in the source
# Jo-1 [47] = biological target: Jo-1 (UniProt P12081); assay: AtheNA, Ab 50 ug/ml
# [48] = biological target: BG505 SOSIP.664 gp140 trimer (HIV-1); assay: negative stain EM
substance,measurement,setting,value
CH235 IA2 (antibody),LogAUC,CH505.M5D8gp120293F,6.95
same,LogAUC,CH505.M21D8gp120/293F,0
same,LogAUC,CH505w030.20D8gp120/293F,0.53
same,LogAUC,CH505.M11D8gp120/293F,0
same,LogAUC,[1],0
same,LogAUC,[2],0
same,LogAUC,CH505w136.B18D8gp120,0
same,LogAUC,CH505.M10D8gp120,0.43
same,LogAUC,CH505.M9D8gp120/293F,0
same,LogAUC,CH505w020.14D8gp120,1.22
same,LogAUC,CH0505_CON D7gp120/293i,4.77
same,LogAUC,CH505.M19D8gp120,0
same,LogAUC,CH505.M7D8gp120/293F,0
same,LogAUC,[3],1.22
same,LogAUC,CH505.w30.12D8gp120,0
same,AtheNA signal (relative luminescence units),Sm (Smith antigen) [4],204
same,AtheNA signal (relative luminescence units),SSB [5],15
same,AtheNA signal (relative luminescence units),Scl-70 [6],28
same,AtheNA signal (relative luminescence units),RNP (ribonucleoprotein) [7],66
same,AtheNA signal (relative luminescence units),Centromere B [8],183
same,AtheNA signal (relative luminescence units),SSA [9],18
same,AtheNA signal (relative luminescence units),Histones [10],207
same,AtheNA signal (relative luminescence units),Jo-1 [11],12
same,AtheNA signal (relative luminescence units),Sm (Smith antigen) [12],279
same,AtheNA signal (relative luminescence units),SSB [13],31
same,AtheNA signal (relative luminescence units),Scl-70 [14],44
same,AtheNA signal (relative luminescence units),RNP (ribonucleoprotein) [15],85
same,AtheNA signal (relative luminescence units),Centromere B [16],225
same,AtheNA signal (relative luminescence units),SSA [17],34
same,AtheNA signal (relative luminescence units),Histones [18],287
same,AtheNA signal (relative luminescence units),Jo-1 [19],20
same,AtheNA signal (relative luminescence units),Sm (Smith antigen) [20],256
same,AtheNA signal (relative luminescence units),SSB [21],36
same,AtheNA signal (relative luminescence units),Scl-70 [22],49
same,AtheNA signal (relative luminescence units),RNP (ribonucleoprotein) [23],93
same,AtheNA signal (relative luminescence units),Centromere B [24],228
same,AtheNA signal (relative luminescence units),SSA [25],43
same,AtheNA signal (relative luminescence units),Histones [26],302
same,AtheNA signal (relative luminescence units),Jo-1 [27],26
same,AtheNA signal (relative luminescence units),Sm (Smith antigen) [28],259
same,AtheNA signal (relative luminescence units),RNP (ribonucleoprotein) [29],101
same,AtheNA signal (relative luminescence units),Centromere B [30],256
same,AtheNA signal (relative luminescence units),Histones [31],371
DH270IA1 (antibody),AtheNA signal,Sm (Smith antigen) [32],5
same,AtheNA signal,SSB [33],6
same,AtheNA signal,Scl-70 [34],1
same,AtheNA signal,RNP (ribonucleoprotein) [35],2
same,AtheNA signal,Centromere B [36],5
same,AtheNA signal,SSA [37],3
same,AtheNA signal,Histones [38],4
same,AtheNA signal,Jo-1 [39],3
same,AtheNA signal,Sm (Smith antigen) [4],3
same,AtheNA signal,SSB [5],1
same,AtheNA signal,Scl-70 [6],2
same,AtheNA signal,RNP (ribonucleoprotein) [7],2
same,AtheNA signal,Centromere B [8],2
same,AtheNA signal,SSA [9],5
same,AtheNA signal,Histones [10],2
same,AtheNA signal,Jo-1 [11],5
same,AtheNA signal,Sm (Smith antigen) [12],5
same,AtheNA signal,SSB [13],6
same,AtheNA signal,Scl-70 [14],2
same,AtheNA signal,RNP (ribonucleoprotein) [15],3
same,AtheNA signal,Centromere B [16],3
same,AtheNA signal,SSA [17],3
same,AtheNA signal,Histones [18],4
same,AtheNA signal,Jo-1 [19],6
same,AtheNA signal,Sm (Smith antigen) [40],5
same,AtheNA signal,SSB [41],6
same,AtheNA signal,Scl-70 [42],4
same,AtheNA signal,RNP (ribonucleoprotein) [43],2
same,AtheNA signal,Centromere B [44],10
same,AtheNA signal,SSA [45],5
same,AtheNA signal,Histones [46],9
same,AtheNA signal,Jo-1 [47],5
CH103 Fab,stoichiometry (Fabs per trimer) (Fabs per trimer),[48],3
